These results are taken from paper PMC6541444 (Science translational medicine, 2019).

For this assay, the target named is T1, recombinant mouse IL-2Ra (Sino Biological) (mouse, UniProt P01590 22-236).
T1 sequence (looked up): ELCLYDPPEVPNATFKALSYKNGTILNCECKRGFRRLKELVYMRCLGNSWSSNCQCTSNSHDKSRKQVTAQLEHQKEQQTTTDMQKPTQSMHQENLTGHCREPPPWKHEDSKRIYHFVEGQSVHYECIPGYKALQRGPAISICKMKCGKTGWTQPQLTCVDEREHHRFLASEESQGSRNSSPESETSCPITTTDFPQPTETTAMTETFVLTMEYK
As to the kind of experiment: ELISA. (ELISA stands for enzyme-linked immunosorbent assay.)

B1: mouse IL-2 (recombinant, unmodified) (ligand, UniProt P04351 21-169, looked up)
chain: APTSSSTSSSTAEAQQQQQQQQQQQQHLEQLLMDLQELLSRMENYRNLKLPRMLTFKFYLPKQATELKDLQCLEDELGPLRHVLDLTQSKSFQLEDAENFISNIRVTVVKLKGSDNTFECQFDDESATVVDFLRRWIAFCQSIISTSPQ
For B1, the binding result was “binds”.
